# Laboratory results from the supplement of paper PMC9732359.
# ± gives the uncertainty stated by the source.
# Experiment: protein stability index of a GFP-peptide fusion (yeast GPS) (PSI 1-4); higher = more stable; sorted into four equal gates, so the index is relative within each strain
# How it was run: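 Tiled 17-residue yeast protein peptides were fused downstream of GFP in a plasmid that also expresses Cherry, and the pooled library was carried in yeast. Mid-log cultures in leucine-free medium were sorted into four equal gates by GFP/Cherry fluorescence ratio, and plasmids from each gate were PCR-amplified and Illumina-sequenced, with reads assigned to strains by barcodes. The protein stability index for each peptide was each gate's read frequency times its gate number, summed.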
Sequence,protein stability index (doa10∆),protein stability index (pdr5∆),protein stability index (san1∆),protein stability index (ubr1∆)
THVANFMNDAAADVSAV [YML103C/NUP188],2.79 ± 0.097,2.77 ± 0.073,2.44 ± 0.081,2.84 ± 0.049
IDYALTAVKQGVTSLGI [PRE8],2.27 ± 0.072,2.07 ± 0.056,1.93 ± 0.071,1.62 ± 0.085
CVEWRLPEIAKEIYTTL [YJR042W/NUP85],1.4 ± 0.075,1.46 ± 0.071,1.52 ± 0.11,1.8 ± 0.066
LISRMIFIATQLEKKIR [BRR2],1.75 ± 0.075,1.9 ± 0.059,1.28 ± 0.12,2.03 ± 0.054
NSLSSNLSSLIVEINNV [YJL041W/NSP1],2.26 ± 0.037,2.58 ± 0.045,2.35 ± 0.051,2.41 ± 0.033
LPEQLKSGKFCSHCGCV [SNM1],2.79 ± 0.084,3.11 ± 0.15,2.89 ± 0.076,2.7 ± 0.071
GPSATDPETTATQKESL [RGR1],2.43 ± 0.062,2.87 ± 0.071,1.66 ± 0.11,2.21 ± 0.048
RRISSMPGGYFHSEISP [YAR002W/NUP60],2.27 ± 0.14,1.89 ± 0.11,2.96 ± 0.094,3.17 ± 0.14
RPLPQWIRLRTNNTIRY [RPL39],1.85 ± 0.056,1.81 ± 0.054,1.5 ± 0.067,1.62 ± 0.052
RKQIDETQVLVSTPEKW [BRR2],2.07 ± 0.052,2.46 ± 0.058,2.31 ± 0.055,2.77 ± 0.028
SVTVSQGNYVTEDIREG [YMR129W/POM152],2.82 ± 0.061,2.91 ± 0.064,2.87 ± 0.061,2.85 ± 0.05
DEDLLDTQTFSVLLQQL [YGL172W/NUP49],2.93 ± 0.059,2.81 ± 0.063,1.72 ± 0.11,2.57 ± 0.045
QLDEFKNKYLKDVLAQT [SWP82],2.52 ± 0.12,2.52 ± 0.15,2.4 ± 0.1,2.36 ± 0.057
KIINKPNELSQILTVDP [RPC82],3.13 ± 0.28,2.56 ± 0.13,3.01 ± 0.075,2.78 ± 0.09
FNGAQLKAVTVEAGMIA [RPT5],2.73 ± 0.28,2.62 ± 0.15,,2.03 ± 0.19
DIPLAKALDNACGAFIN [CDC53],2.63 ± 0.091,3.1 ± 0.067,2.8 ± 0.078,2.87 ± 0.072
EDQKVVDKALIAEIKKT [RPL6A],3.37 ± 0.13,3.48 ± 0.084,3.19 ± 0.11,3.61 ± 0.072
NKEGTLEQREQNENLPS [SSN2],3.02 ± 0.11,3.06 ± 0.074,3.09 ± 0.057,3.05 ± 0.057
FGRTLASVTKEILGTAQ [RPL12A],1.46 ± 0.1,1.53 ± 0.047,1.38 ± 0.084,1.62 ± 0.078
DKKVTLITSEMFDAFVS [SIN4],1.56 ± 0.059,1.46 ± 0.049,1.36 ± 0.098,1.28 ± 0.042
KSMGRKCFDDIEPHIFD [YCG1],3.15 ± 0.075,3.07 ± 0.084,3.29 ± 0.046,3.32 ± 0.048
DAVLKIFSFHQDSIFQR [SRB8],3.12 ± 0.11,2.79 ± 0.12,3.04 ± 0.077,2.77 ± 0.057
SNGEFIPHIFYSLHQIR [CSE2],2.02 ± 0.07,2.1 ± 0.054,2.12 ± 0.072,2.34 ± 0.057
FDIYNRDRKLITDKGTV [YJL039C/NUP192],3.18 ± 0.13,2.53 ± 0.093,2.86 ± 0.11,2.96 ± 0.083
EESIRESLQKRELLKSQ [SIR3],3.13 ± 0.063,3.32 ± 0.068,3 ± 0.056,3.12 ± 0.059
YSKIKHLGLDDPQDVFN [SIR2],2.77 ± 0.18,3.22 ± 0.19,3.3 ± 0.14,3.24 ± 0.096
PHELTESVLPAARYDYA [QCR2],2.22 ± 0.061,1.92 ± 0.046,2.09 ± 0.081,1.92 ± 0.044

Sequence,protein stability index (doa10∆),protein stability index (pdr5∆),protein stability index (san1∆),protein stability index (ubr1∆)
TKGDTSKATGAPSANQG [RTT102],3.18 ± 0.065,3.35 ± 0.074,3.29 ± 0.045,3.24 ± 0.059
STLSNWSSEFAKWAPTL [SNF2],2.9 ± 0.054,2.45 ± 0.06,2.85 ± 0.055,2.26 ± 0.047
ITARSAFVEFGASVIAG [SWP82],1.93 ± 0.11,2.53 ± 0.085,1.86 ± 0.11,2.21 ± 0.054
IRINDEPILGQITLTFI [YML103C/NUP188],2.21 ± 0.067,2.64 ± 0.05,1.57 ± 0.073,2.25 ± 0.048
RGRGRGRGRGRGRPPKA [SNF2],3.22 ± 0.075,3.2 ± 0.066,3.37 ± 0.041,3.27 ± 0.06
LKESYSQKHNGRILKWL [CDC53],2.01 ± 0.059,2.69 ± 0.057,2.34 ± 0.055,2.14 ± 0.056
CKNFEKTQLGSTMTEPV [GAL11],2.81 ± 0.05,2.84 ± 0.065,2.58 ± 0.054,2.84 ± 0.039
STRLKKACKTADKLVNV [SRP68],3.38 ± 0.081,3.26 ± 0.073,2.98 ± 0.074,3.18 ± 0.052
GSIRVHKSGKLSVKIGN [RPC53],1.27 ± 0.052,1.44 ± 0.047,1.75 ± 0.068,1.69 ± 0.04
KKACIIFFDEIDAVGGA [RPT1],2.39 ± 0.052,2.67 ± 0.054,2.81 ± 0.055,2.73 ± 0.038
RPDIVHTVFTSVNKNKR [RPL4A],1.26 ± 0.088,1.46 ± 0.11,1.24 ± 0.17,1.4 ± 0.12
SKQNGSKFHFSWNESED [PRP28],2.73 ± 0.061,2.94 ± 0.064,2.72 ± 0.072,2.79 ± 0.046
FGDTKSESKQLGNTSSV [SWI3],3.54 ± 0.12,3.16 ± 0.081,3.13 ± 0.066,3.35 ± 0.05
TIPILESDSKATLQSNE [DSN1],2.8 ± 0.12,2.16 ± 0.11,2.36 ± 0.16,2.67 ± 0.081
IADLDTEAEETSIHSTI [RRP43],3.76 ± 0.18,2.56 ± 0.17,3.54 ± 0.11,3.38 ± 0.15
DRRKARKAYFTAPSSQR [RPL26A],2.59 ± 0.069,2.49 ± 0.091,2.76 ± 0.057,2.59 ± 0.068
VFENYVKKTGENEISSL [CDC53],3.14 ± 0.069,2.74 ± 0.072,2.9 ± 0.07,3.15 ± 0.042
GEVVYLRKQKDSSTTSS [ITC1],1.79 ± 0.073,1.73 ± 0.08,1.48 ± 0.14,2.23 ± 0.081
PIAASTDLPIETAAMAS [RPN1],1.48 ± 0.041,1.64 ± 0.052,1.53 ± 0.06,1.71 ± 0.058
SEEPTDFGFDLDIEKEA [MCD1],2.77 ± 0.25,,,3.24 ± 0.14
KDEETTEKARLIDFEYV [RRI2],3.21 ± 0.098,3.5 ± 0.14,3.56 ± 0.073,3.13 ± 0.11
HGSISPQEESVSPNISS [SIR3],2.82 ± 0.075,3.06 ± 0.07,2.98 ± 0.046,3.01 ± 0.034
FATTKAECISLICSIGL [ECM29],1.5 ± 0.059,1.97 ± 0.056,1.65 ± 0.13,1.77 ± 0.05
QPQQQLGDMENNLEKYP [RTT102],3.54 ± 0.092,3.15 ± 0.12,3.62 ± 0.077,3.33 ± 0.1
TKSGATTSEKQEVTNEA [GAL11],2.99 ± 0.28,3.52 ± 0.19,2.9 ± 0.28,
PNGTKKAYVRLTADYDA [RPL25],,,3.07 ± 0.16,3.34 ± 0.15
PRSPGRSPTRRLELLQL [SMC4],1.41 ± 0.27,2.12 ± 0.15,1.99 ± 0.25,1.7 ± 0.13
